Test results published in the supplement of paper PMC11196671.

How the values were obtained:
[1] = MHET released, HPLC; higher = more MHET released; extreme values may be limits of the assay; settings: 24 h
Experimental: (§1)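 Purified PET hydrolases, 2.5 ug enzyme on 3.5 mg amorphous PET film (aFilm) or crystalline PET powder (cryPow) in 0.5 mL of 50 mM buffer (NaCitrate pH 4.5/5.5, NaPhosphate 6.5/7.5, glycine 8.5/9.5) at 60 or 70 C with shaking for 24 h. Total aromatic product by UV-Vis (260/280 nm, blank-subtracted, normalised per mg enzyme) and individual TPA, MHET, BHET concentrations by UHPLC-DAD at 240 nm; duplicate reactions.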

[2] = terephthalic acid (TPA) released, HPLC; higher = more TPA released; extreme values may be limits of the assay; settings: 24 h
Experimental: as §1

[3] = PET hydrolysis product formed (TPA+MHET+BHET, UV-Vis) per mg enzyme (mmol/mg enzyme); higher = more PET depolymerisation activity; extreme values may be limits of the assay; settings: 2 h
Experimental: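 Purified PET hydrolases (His-SUMO cleaved, E. coli C41(DE3) small-scale expression), 2.5 ug enzyme on 3.5 mg amorphous PET film (aFilm) or crystalline PET powder (cryPow) in 0.5 mL of 50 mM buffer (NaCitrate pH 4.5/5.5, NaPhosphate 6.5/7.5, glycine 8.5/9.5) at 60 or 70 C with shaking for 2 h. Soluble aromatic products (TPA+MHET+BHET) were quantified by UV-Vis at 260/280 nm, blank-subtracted against the no-enzyme control, and normalised per mg enzyme; duplicate reactions.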

[4] = as above; settings: 24 h
Experimental: as §1

SNPYQRGPNPTRSALTADGPFSVATYTVSRLSVSGFGGGVIYYPTGTSLTFGGIAMSPGYTADASSLAWLGRRLASHGFVVLVINTNSRFDGPDSRASQLSAALNYLRTSSPSAVRARLDANRLAVAGHSMGGGGTLRIAEQNPSLKAAVPLTPWHTDKTFNTSVPVLIVGAEADTVAPVSQHAIPFYQNLPSTTPKVYVELCNASHIAPNSNNAAISVYTISWMKLWVDNDTRYRQFLCNVNDPALCDFRTNNRHCQ [LCC-ICCG]
Settings | MHET released, [1] [mM] | PET hydrolysis product formed, [3] | PET hydrolysis product formed, [4] | terephthalic acid, [2] [mM]
PET substrate: aFilm, 60 °C, pH 4.5 | 0.00708 | 0 | 0.00176 | 0.0137
PET substrate: aFilm, 60 °C, pH 5.5 | 0.284 | 0.0182 | 0.126 | 0.309
PET substrate: aFilm, 60 °C, pH 6.5 | 0.773 | 0.0377 | 0.327 | 0.78
PET substrate: aFilm, 60 °C, pH 7.5 | 3.92 | 0.0795 | 1.42 | 3.41
PET substrate: aFilm, 60 °C, pH 8.5 | 0.271 | 0.0461 | 0.142 | 0.472
PET substrate: aFilm, 60 °C, pH 9.5 | 2.19 | 0.0968 | 0.885 | 2.3
PET substrate: aFilm, 70 °C, pH 4.5 | 0 | 0 | 0 | 0
PET substrate: aFilm, 70 °C, pH 5.5 | 0.246 | 0.0371 | 0.109 | 0.25
PET substrate: aFilm, 70 °C, pH 6.5 | 0.356 | 0.0873 | 0.165 | 0.362
PET substrate: aFilm, 70 °C, pH 7.5 | 4.35 | 0.226 | 1.92 | 2.48
PET substrate: aFilm, 70 °C, pH 8.5 | 0.221 | 0.0682 | 0.107 | 0.287
PET substrate: aFilm, 70 °C, pH 9.5 | 1.87 | 0.252 | 0.901 | 1.72
PET substrate: cryPow, 60 °C, pH 4.5 | 0.0148 | 0 | 0 | 0.0129
PET substrate: cryPow, 60 °C, pH 5.5 | 0.203 | 0.0406 | 0.0652 | 0.0979
PET substrate: cryPow, 60 °C, pH 6.5 | 0.27 | 0.045 | 0.09 | 0.113
PET substrate: cryPow, 60 °C, pH 7.5 | 0.507 | 0.0768 | 0.184 | 0.308
PET substrate: cryPow, 60 °C, pH 8.5 | 0.198 | 0.0339 | 0.0728 | 0.121
PET substrate: cryPow, 60 °C, pH 9.5 | 0.165 | 0.0379 | 0.125 | 0.516
PET substrate: cryPow, 70 °C, pH 4.5 | 0 | 0 | 0 | 0
PET substrate: cryPow, 70 °C, pH 5.5 | 0.1 | 0.0205 | 0.031 | 0.0559
PET substrate: cryPow, 70 °C, pH 6.5 | 0.208 | 0.0349 | 0.0781 | 0.0977
PET substrate: cryPow, 70 °C, pH 7.5 | 0.433 | 0.0598 | 0.2 | 0.409
PET substrate: cryPow, 70 °C, pH 8.5 | 0.173 | 0.0285 | 0.0667 | 0.111
PET substrate: cryPow, 70 °C, pH 9.5 | 0.1 | 0.0357 | 0.131 | 0.682
